Experimental data reported in PMC4600727 (2015).

T1: Trx-Stau951-1,018 (Drosophila, UniProt P25159 951-1018)
T1 chain: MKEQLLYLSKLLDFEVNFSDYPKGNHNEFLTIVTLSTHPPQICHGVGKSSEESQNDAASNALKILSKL

T2: Stau dsRBD5 Y971K (Drosophila, UniProt P25159 951-1018)
T2 chain: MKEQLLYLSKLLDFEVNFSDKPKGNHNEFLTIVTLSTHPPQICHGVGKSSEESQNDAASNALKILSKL


Key:
[1] = biological target: T1, Trx-Stau951-1,018; assay: ITC; Mira fragments injected into Stau fragments; 25 °C; 50 mM Tris pH 8.0, 100 mM NaCl, 1 mM EDTA
[2] = biological target: T2, Stau dsRBD5 Y971K; assay: ITC
[3] = biological target: T1, Trx-Stau951-1,018; assay: ITC

Kd [1] [µM] | Kd [2] [µM] | Kd [3] [µM] | Binder
1.07 | 8.7 |  | Trx-Mira514–595 (domain or fragment) NYQLTLTNTRATVNILMERLKKSDADVEQYRAELESVQLAKGALEQSYLVLQADAEQLRQQLTESQDALNALRSSSQTLQSE
 |  | 72.5 | Mira514–595 R532A (domain or fragment) NYQLTLTNTRATVNILMEALKKSDADVEQYRAELESVQLAKGALEQSYLVLQADAEQLRQQLTESQDALNALRSSSQTLQSE
